Results as given in the supplement of paper PMC10567573.

B1: PDS5B (parent)
chain: IYKKYALQSAAGKDAAKQIAWIKD

Variants of: B1
Assay: protein stability index of a GFP-peptide fusion (GPS, HEK-293T) (PSI 1-6); higher = more stable
Settings: c terminus: a fixed tail appended
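Also: lentivirally expressed fusions sorted by FACS into six bins by GFP to DsRed ratio, PSI derived from sequencing read proportions per bin multiplied by bin number.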

Variant | protein stability index
IYKKYALQSAAGKDAAKQNAWIKD [I19N] | 3.59
IYKKYALQSAAGKDAAKQVAWIKD [I19V] | 2.49
IYKKYALQSAAGKDAAKQGAWIKD [I19G] | 3.46
IYKKYALQSAAGKDAAKQYAWIKD [I19Y] | 1.99
IYKKYALQSAAGKDAAKQFAWIKD [I19F] | 2.29
IYKKYALQSAAGKDAAKQRAWIKD [I19R] | 2.38
IYKKYALQSAAGKDAAKQPAWIKD [I19P] | 3.11
IYKKYALQSAAGKDAAKQKAWIKD [I19K] | 3.01
IYKKYALQSAAGKDAAKQQAWIKD [I19Q] | 2.52
IYKKYALQSAAGKDAAKQWAWIKD [I19W] | 1.93
IYKKYALQSAAGKDAAKQMAWIKD [I19M] | 1.97
IYKKYALQSAAGKDAAKQDAWIKD [I19D] | 3.79
IYKKYALQSAAGKDAAKQSAWIKD [I19S] | 2.6
IYKKYALQSAAGKDAAKQLAWIKD [I19L] | 1.81
IYKKYALQSAAGKDAAKQTAWIKD [I19T] | 2.77
IYKKYALQSAAGKDAAKQAAWIKD [I19A] | 2.48
IYKKYALQSAAGKDAAKQHAWIKD [I19H] | 3.34
IYKKYALQSAAGKDAAKQCAWIKD [I19C] | 2.38
IYKKYALQSAAGKDAAKQIVWIKD [A20V] | 2.08
IYKKYALQSAAGKDAAKQIDWIKD [A20D] | 3.39
IYKKYALQSAAGKDAAKQIKWIKD [A20K] | 2.26
IYKKYALQSAAGKDAAKQIEWIKD [A20E] | 2.66
IYKKYALQSAAGKDAAKQIIWIKD [A20I] | 2.31
IYKKYALQSAAGKDAAKQIWWIKD [A20W] | 2.68

Variant | protein stability index
IYKKYALQSAAGKDAAKQIGWIKD [A20G] | 2.25
IYKKYALQSAAGKDAAKQIPWIKD [A20P] | 2.66
IYKKYALQSAAGKDAAKQILWIKD [A20L] | 1.89
IYKKYALQSAAGKDAAKQINWIKD [A20N] | 2.68
IYKKYALQSAAGKDAAKQIRWIKD [A20R] | 1.84
IYKKYALQSAAGKDAAKQICWIKD [A20C] | 2.18
IYKKYALQSAAGKDAAKQIFWIKD [A20F] | 1.95
IYKKYALQSAAGKDAAKQITWIKD [A20T] | 2.23
IYKKYALQSAAGKDAAKQIHWIKD [A20H] | 2.07
IYKKYALQSAAGKDAAKQISWIKD [A20S] | 2.4
IYKKYALQSAAGKDAAKQIMWIKD [A20M] | 2.02
IYKKYALQSAAGKDAAKQIQWIKD [A20Q] | 2.29
IYKKYALQSAAGKDAAKQIYWIKD [A20Y] | 2.22
IYKKYALQSAAGKDAAKQIAHIKD [W21H] | 2.75
IYKKYALQSAAGKDAAKQIAAIKD [W21A] | 3.22
IYKKYALQSAAGKDAAKQIATIKD [W21T] | 3.55
IYKKYALQSAAGKDAAKQIAEIKD [W21E] | 2.91
IYKKYALQSAAGKDAAKQIAIIKD [W21I] | 2.88
IYKKYALQSAAGKDAAKQIANIKD [W21N] | 3.83
IYKKYALQSAAGKDAAKQIAGIKD [W21G] | 2.92
IYKKYALQSAAGKDAAKQIAFIKD [W21F] | 2.31
IYKKYALQSAAGKDAAKQIALIKD [W21L] | 2.19
IYKKYALQSAAGKDAAKQIASIKD [W21S] | 3.19
IYKKYALQSAAGKDAAKQIADIKD [W21D] | 3.05

Variant | protein stability index
IYKKYALQSAAGKDAAKQIAPIKD [W21P] | 3.57
IYKKYALQSAAGKDAAKQIAQIKD [W21Q] | 3.09
IYKKYALQSAAGKDAAKQIAKIKD [W21K] | 2.65
IYKKYALQSAAGKDAAKQIARIKD [W21R] | 2.74
IYKKYALQSAAGKDAAKQIACIKD [W21C] | 3.02
IYKKYALQSAAGKDAAKQIAMIKD [W21M] | 3.2
IYKKYALQSAAGKDAAKQIAVIKD [W21V] | 2.72
IYKKYALQSAAGKDAAKQIAYIKD [W21Y] | 2.42
IYKKYALQSAAGKDAATQIAWIKD [K17T] | 2.92
IYKKYALQSAAGKDAAHQIAWIKD [K17H] | 2.89
IYKKYALQSAAGKDAAGQIAWIKD [K17G] | 2.35
IYKKYALQSAAGKDAAPQIAWIKD [K17P] | 2.51
IYKKYALQSAAGKDAARQIAWIKD [K17R] | 2.67
IYKKYALQSAAGKDAASQIAWIKD [K17S] | 2.67
IYKKYALQSAAGKDAAAQIAWIKD [K17A] | 2.48
IYKKYALQSAAGKDAACQIAWIKD [K17C] | 2.04
IYKKYALQSAAGKDAAMQIAWIKD [K17M] | 1.38
IYKKYALQSAAGKDAAYQIAWIKD [K17Y] | 1.66
IYKKYALQSAAGKDAAIQIAWIKD [K17I] | 1.79
IYKKYALQSAAGKDAAFQIAWIKD [K17F] | 1.32
IYKKYALQSAAGKDAADQIAWIKD [K17D] | 3.27
IYKKYALQSAAGKDAAEQIAWIKD [K17E] | 3.42
IYKKYALQSAAGKDAAWQIAWIKD [K17W] | 1.63
IYKKYALQSAAGKDAAQQIAWIKD [K17Q] | 2.19

Variant | protein stability index
IYKKYALQSAAGKDAAVQIAWIKD [K17V] | 2.12
IYKKYALQSAAGKDAANQIAWIKD [K17N] | 2.51
IYKKYALQSAAGKDAALQIAWIKD [K17L] | 2.07
IYKKYALQSAAGKDAAKQIAWFKD [I22F] | 2.29
IYKKYALQSAAGKDAAKQIAWWKD [I22W] | 2.28
IYKKYALQSAAGKDAAKQIAWVKD [I22V] | 3.21
IYKKYALQSAAGKDAAKQIAWCKD [I22C] | 2.75
IYKKYALQSAAGKDAAKQIAWLKD [I22L] | 2.33
IYKKYALQSAAGKDAAKQIAWEKD [I22E] | 4.49
IYKKYALQSAAGKDAAKQIAWSKD [I22S] | 3.09
IYKKYALQSAAGKDAAKQIAWPKD [I22P] | 3.1
IYKKYALQSAAGKDAAKQIAWRKD [I22R] | 3.43
IYKKYALQSAAGKDAAKQIAWYKD [I22Y] | 2.52
IYKKYALQSAAGKDAAKQIAWKKD [I22K] | 3.21
IYKKYALQSAAGKDAAKQIAWHKD [I22H] | 3.12
IYKKYALQSAAGKDAAKQIAWAKD [I22A] | 3.14
IYKKYALQSAAGKDAAKQIAWTKD [I22T] | 3.31
IYKKYALQSAAGKDAAKQIAWQKD [I22Q] | 3.27
IYKKYALQSAAGKDAAKQIAWNKD [I22N] | 3.26
IYKKYALQSAAGKDAAKQIAWDKD [I22D] | 3.78
IYKKYALQSAAGKDAAKQIAWMKD [I22M] | 2.14
IYKKYALQSAAGKDAAKQIAWGKD [I22G] | 2.8
IYKKYALQSAAGKDANKQIAWIKD [A16N] | 2.39
IYKKYALQSAAGKDAPKQIAWIKD [A16P] | 2.05

Variant | protein stability index
IYKKYALQSAAGKDASKQIAWIKD [A16S] | 2.47
IYKKYALQSAAGKDARKQIAWIKD [A16R] | 2.12
IYKKYALQSAAGKDAMKQIAWIKD [A16M] | 2.02
IYKKYALQSAAGKDAYKQIAWIKD [A16Y] | 2.05
IYKKYALQSAAGKDALKQIAWIKD [A16L] | 2.09
IYKKYALQSAAGKDAWKQIAWIKD [A16W] | 2.11
IYKKYALQSAAGKDAQKQIAWIKD [A16Q] | 2.35
IYKKYALQSAAGKDATKQIAWIKD [A16T] | 2.46
IYKKYALQSAAGKDAVKQIAWIKD [A16V] | 2.98
IYKKYALQSAAGKDAAKQIAWIDD [K23D] | 2.98
IYKKYALQSAAGKDAAKQIAWITD [K23T] | 2.18
IYKKYALQSAAGKDAAKQIAWISD [K23S] | 2.98
IYKKYALQSAAGKDAAKQIAWIWD [K23W] | 2.62
IYKKYALQSAAGKDAAKQIAWIQD [K23Q] | 2.23
IYKKYALQSAAGKDAAKQIAWIVD [K23V] | 1.54
IYKKYALQSAAGKDAAKQIAWIGD [K23G] | 2.68
IYKKYALQSAAGKDAAKQIAWIMD [K23M] | 2
IYKKYALQSAAGKDAAKQIAWIYD [K23Y] | 2.44
IYKKYALQSAAGKDAAKQIAWIND [K23N] | 2.24
IYKKYALQSAAGKDAAKQIAWIPD [K23P] | 2.36
IYKKYALQSAAGKDAAKQIAWICD [K23C] | 1.47
IYKKYALQSAAGKDAAKQIAWIID [K23I] | 2.64
IYKKYALQSAAGKDAAKQIAWIHD [K23H] | 2.55
IYKKYALQSAAGKDAAKQIAWIRD [K23R] | 1.52

Variant | protein stability index
IYKKYALQSAAGKDAAKQIAWIFD [K23F] | 2.39
IYKKYALQSAAGKDAAKQIAWILD [K23L] | 3.36
IYKKYALQSAAGKDAAKQIAWIAD [K23A] | 2.11
IYKKYALQSAAGKDAAKQIAWIED [K23E] | 2.53
IYKKYALQSAAGKDAAKQIAWIKW [D24W] | 1.66
IYKKYALQSAAGKDAAKQIAWIKL [D24L] | 2.02
IYKKYALQSAAGKDAAKQIAWIKP [D24P] | 2.79
IYKKYALQSAAGKDAAKQIAWIKY [D24Y] | 1.14
IYKKYALQSAAGKDAAKQIAWIKF [D24F] | 2.15
IYKKYALQSAAGKDAAKQIAWIKV [D24V] | 2.52
IYKKYALQSAAGKDAAKQIAWIKN [D24N] | 2.24
IYKKYALQSAAGKDAAKQIAWIKS [D24S] | 2.42
IYKKYALQSAAGKDAAKQIAWIKR [D24R] | 1.97
IYKKYALQSAAGKDAAKQIAWIKK [D24K] | 2.19
IYKKYALQSAAGKDAAKQIAWIKG [D24G] | 2.08
IYKKYALQSAAGKDAAKQIAWIKC [D24C] | 2.08
IYKKYALQSAAGKDAAKQIAWIKM [D24M] | 1.59
IYKKYALQSAAGKDAAKQIAWIKI [D24I] | 1.76
IYKKYALQSAAGKDAAKQIAWIKH [D24H] | 2.14
IYKKYALQSAAGKDAAKQIAWIKQ [D24Q] | 1.7
IYKKYALQSAAGKDAAKQIAWIKA [D24A] | 2
IYKKYALQSAAGKDAAKQIAWIKT [D24T] | 1.94
IYKKYALQSAAGKDAAKQIAWIKE [D24E] | 1.75
IYKKYALQSAAGKDAAKCIAWIKD [Q18C] | 1.75

Variant | protein stability index
IYKKYALQSAAGKDAAKDIAWIKD [Q18D] | 2.83
IYKKYALQSAAGKDAAKMIAWIKD [Q18M] | 2.38
IYKKYALQSAAGKDAAKEIAWIKD [Q18E] | 2.45
IYKKYALQSAAGKDAAKSIAWIKD [Q18S] | 2.58
IYKKYALQSAAGKDAAKTIAWIKD [Q18T] | 1.6
IYKKYALQSAAGKDAAKNIAWIKD [Q18N] | 2.49
IYKKYALQSAAGKDAAKAIAWIKD [Q18A] | 2.06
IYKKYALQSAAGKDAAKHIAWIKD [Q18H] | 2.43
IYKKYALQSAAGKDAAKVIAWIKD [Q18V] | 2.07
IYKKYALQSAAGKDAAKGIAWIKD [Q18G] | 2.45
IYKKYALQSAAGKDAAKYIAWIKD [Q18Y] | 1.33
IYKKYALQSAAGKDAAKLIAWIKD [Q18L] | 1.99
IYKKYALQSAAGKDAAKFIAWIKD [Q18F] | 2.33
IYKKYALQSAAGKDAAKKIAWIKD [Q18K] | 2.6
IYKKYALQSAAGKDAAKIIAWIKD [Q18I] | 2.4
IYKKYALQSAAGKDAAKRIAWIKD [Q18R] | 2.24
IYKKYALQSAAGKDAAKPIAWIKD [Q18P] | 2.37
IYKKYALQSAAGKDAAKWIAWIKD [Q18W] | 2.18
